Numbering of substitutions follows the chain as printed. Names may count otherwise.
T1: EsCas13d, nuclease-dead (Eubacterium siraeum, UniProt B0MS50, R295A;H300A;R849A;H854A)
T1 sequence: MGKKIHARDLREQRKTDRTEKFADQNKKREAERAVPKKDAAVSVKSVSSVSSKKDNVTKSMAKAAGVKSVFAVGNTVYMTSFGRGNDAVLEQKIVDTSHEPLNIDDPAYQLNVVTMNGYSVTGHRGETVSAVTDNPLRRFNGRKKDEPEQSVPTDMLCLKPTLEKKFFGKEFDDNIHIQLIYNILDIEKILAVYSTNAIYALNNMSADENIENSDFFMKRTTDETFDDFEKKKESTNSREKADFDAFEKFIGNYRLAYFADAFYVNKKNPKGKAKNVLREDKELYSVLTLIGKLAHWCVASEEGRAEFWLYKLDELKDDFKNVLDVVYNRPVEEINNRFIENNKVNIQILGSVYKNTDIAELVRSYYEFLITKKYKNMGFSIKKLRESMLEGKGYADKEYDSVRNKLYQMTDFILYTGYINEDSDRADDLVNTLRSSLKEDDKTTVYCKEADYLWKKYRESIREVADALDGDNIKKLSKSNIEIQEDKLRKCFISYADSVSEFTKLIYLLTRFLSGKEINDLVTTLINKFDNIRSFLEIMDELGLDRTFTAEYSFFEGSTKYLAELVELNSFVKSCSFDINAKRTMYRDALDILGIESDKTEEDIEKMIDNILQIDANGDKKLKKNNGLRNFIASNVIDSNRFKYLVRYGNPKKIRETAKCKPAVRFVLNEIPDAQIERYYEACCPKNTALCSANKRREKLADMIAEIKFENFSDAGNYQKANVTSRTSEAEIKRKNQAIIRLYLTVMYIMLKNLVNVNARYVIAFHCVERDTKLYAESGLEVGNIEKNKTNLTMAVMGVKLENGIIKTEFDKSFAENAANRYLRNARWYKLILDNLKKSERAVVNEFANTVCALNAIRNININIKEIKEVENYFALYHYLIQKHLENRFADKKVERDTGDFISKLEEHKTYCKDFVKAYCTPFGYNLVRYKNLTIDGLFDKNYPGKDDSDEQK

B1: target 1 C2A,G17U (mixed)
RNA 1: CACCCGUGCAAAAAUGCAGGGGUCUAAAACUGAGCGGAUAACCUCUCUAUGG
RNA 2: GGGAAUGGAUCCACAUCUACGAAUUCGUACCAUAUAGAGGUUAUCCGCUAACCGAGAUCGGAAGAGCACACGU
B2: target 1 insG 3' of 3,insA 3' of 2 (mixed)
RNA 1: B1 RNA 1
RNA 2: GGGAAUGGAUCCACAUCUACGAAUUCGUACCAUAGAGAGGUUAUCCGCUGCAACCGAGAUCGGAAGAGCACACGU
B3: target 1 C2U,C4U (mixed)
RNA 1: B1 RNA 1
RNA 2: B1 RNA 2 with U35G, C48U, A50U
B4: target 1 insC 3' of 9,insU 3' of 6 (mixed)
RNA 1: B1 RNA 1
RNA 2: B2 RNA 2 with U44C, C45U, G47C, C48U, U49G, G50C, C51U, A52C
B5: target 3 insC 3' of 8,insA 3' of 3 (mixed)
RNA 1: CACCCGUGCAAAAUUGCAGGGGUCUAAAACGACCUGAAUAUUUCAGAUCAAA
RNA 2: GGGAAUGGAUCCACAUCUACGAAUUCGUUUUUGAUCUGAAAUAUCUCAGGAUCUGCAGAUCGGAAGAGCACACGU
B6: target 3 insU 3' of 13,insU 3' of 3 (mixed)
RNA 1: B5 RNA 1
RNA 2: B5 RNA 2 with A40U, U42A, A43U, U44A, C45U, A51U
B7: target 3 C6U,U8A (mixed)
RNA 1: B5 RNA 1
RNA 2: GGGAAUGGAUCCACAUCUACGAAUUCGUUUUUGAUCUGAAAUAAUUAGGUCUGCAGAUCGGAAGAGCACACGU
B8: target 3 G4C,U21C (mixed)
RNA 1: B5 RNA 1
RNA 2: B7 RNA 2 with U31C, A44U, U46C, G48C
B9: target 3 U21C,U22A (mixed)
RNA 1: B5 RNA 1
RNA 2: B7 RNA 2 with U30A, U31C, A44U, U46C
B10: target 3 U2C,G4U (mixed)
RNA 1: B5 RNA 1
RNA 2: B7 RNA 2 with A44U, U46C, G48U, U50C
B11: target 3 insG 3' of 22,insG 3' of 22 (mixed)
RNA 1: B5 RNA 1
RNA 2: GGGAAUGGAUCCACAUCUACGAAUUCGUUUGGUUGAUCUGAAAUAUUCAGGUCUGCAGAUCGGAAGAGCACACGU
B12: target 3 G19U,U22A (mixed)
RNA 1: B5 RNA 1
RNA 2: B7 RNA 2 with U30A, G33U, A44U, U46C
B13: target 3 insA 3' of 10,insU 3' of 6 (mixed)
RNA 1: B5 RNA 1
RNA 2: B5 RNA 2 with U44A, C45U, A48U, G49A, A51G
B14: target 3 insA 3' of 14,insG 3' of 2 (mixed)
RNA 1: B5 RNA 1
RNA 2: B5 RNA 2 with U42A, A43U, U44A, C45U, A51U, U52G
B15: target 3 insU 3' of 11,insG 3' of 2 (mixed)
RNA 1: B5 RNA 1
RNA 2: B5 RNA 2 with A43U, U44A, C45U, A51U, U52G
B16: target 3 insU 3' of 3 (mixed)
RNA 1: B5 RNA 1
RNA 2: GGGAAUGGAUCCACAUCUACGAAUUCGUUUUUGAUCUGAAAUAUUCAGGUUCUGCAGAUCGGAAGAGCACACGU
B17: target 3 G3C,G4U (mixed)
RNA 1: B5 RNA 1
RNA 2: B7 RNA 2 with A44U, U46C, G48U, G49C
B18: target 3 U2A,U7G (mixed)
RNA 1: B5 RNA 1
RNA 2: B7 RNA 2 with A44U, U45G, U46C, U50A
B19: target 3 A13G (mixed)
RNA 1: B5 RNA 1
RNA 2: B7 RNA 2 with A39G, A44U, U46C
B20: target 3 insC 3' of 21,insU 3' of 4 (mixed)
RNA 1: B5 RNA 1
RNA 2: GGGAAUGGAUCCACAUCUACGAAUUCGUUUUCUGAUCUGAAAUAUUCAGUGUCUGCAGAUCGGAAGAGCACACGU
B21: target 3 G4U,A9G (mixed)
RNA 1: B5 RNA 1
RNA 2: B7 RNA 2 with A43G, A44U, U46C, G48U
B22: target 3 G4U,U7C (mixed)
RNA 1: B5 RNA 1
RNA 2: B7 RNA 2 with A44U, U45C, U46C, G48U
B23: target 3 A5G,C6A (mixed)
RNA 1: B5 RNA 1
RNA 2: B7 RNA 2 with A44U, U46A, A47G
B24: target 3 A5G,U22C (mixed)
RNA 1: B5 RNA 1
RNA 2: B7 RNA 2 with U30C, A44U, U46C, A47G
B25: target 3 insC 3' of 11,insU 3' of 3 (mixed)
RNA 1: B5 RNA 1
RNA 2: B5 RNA 2 with U42C, A43U, U44A, C45U, A51U
B26: target 3 G4A,A5U (mixed)
RNA 1: B5 RNA 1
RNA 2: B7 RNA 2 with A44U, U46C, A47U, G48A
B27: target 3 insG 3' of 8,insU 3' of 3 (mixed)
RNA 1: B5 RNA 1
RNA 2: B5 RNA 2 with C45G, A51U
B28: target 3 insA 3' of 10,insA 3' of 8 (mixed)
RNA 1: B5 RNA 1
RNA 2: B5 RNA 2 with U44A, C45U, U46A, C47U, A48C, G49A, A51G
B29: target 3 insC 3' of 22,insC 3' of 5 (mixed)
RNA 1: B5 RNA 1
RNA 2: B20 RNA 2 with U31C, C32U, G49C, U50G
B30: target 3 insG 3' of 22,insG 3' of 2 (mixed)
RNA 1: B5 RNA 1
RNA 2: B20 RNA 2 with U31G, C32U, U50G, G51U, U52G
B31: target 3 U21A,U22C (mixed)
RNA 1: B5 RNA 1
RNA 2: B7 RNA 2 with U30C, U31A, A44U, U46C
B32: target 3 insA 3' of 22,insG 3' of 2 (mixed)
RNA 1: B5 RNA 1
RNA 2: B20 RNA 2 with U31A, C32U, U50G, G51U, U52G

The binders below were run against T1, EsCas13d, nuclease-dead (assay: crRNA (strand 1, pre-loaded); Mg2+; 40 mM Tris-HCl pH 7.5, 150 mM NaCl, 6 mM MgCl2, 1 mM DTT, 0.1% Tween-20, 0.2 mg/ml BSA; 25 C; 10 min per concentration, then washed). Settings: tags: His6-TwinStrep-SUMO cleaved; N-terminal SNAP kept (SNAP-Surface 488); label: 3' end held by stalled T7 RNA polymerase.

Point of comparison: B26, Kd 19.3 ± 2.25 nM. Against it:
- B1 — 1.6-fold higher, 30.5 ± 2.6 nM
- B2 — 3-fold lower, 6.5 ± 0.4 nM
- B3 — 3-fold higher, 58 ± 17 nM
- B4 — within error, 16.6 ± 0.9 nM
- B5 — 4.8-fold higher, 93 ± 27 nM
- B6 — 3.3-fold higher, 64.5 ± 20 nM
- B7 — 2.6-fold higher, 50.8 ± 4.85 nM
- B8 — 3.1-fold higher, 60 ± 21 nM
- B9 — 1.6-fold higher, 30.5 ± 7 nM
- B10 — within error, 23 ± 5 nM
- B11 — 3.3-fold higher, 64.5 ± 13.5 nM
- B12 — 4.1-fold higher, 80 ± 7 nM
- B13 — 4.1-fold higher, 79.5 ± 14.5 nM
- B14 — 1.7-fold higher, 32.8 ± 3.65 nM
- B15 — 2.2-fold higher, 42.5 ± 6 nM
- B16 — 1.5-fold higher, 29.2 ± 3.4 nM
- B17 — within error, 18.3 ± 3.2 nM
- B18 — 3.2-fold higher, 62.5 ± 10.5 nM
- B19 — 3.6-fold higher, 69 ± 20 nM
- B20 — 3.5-fold higher, ~68.5 nM
- B21 — 1.9-fold higher, 37.5 ± 4 nM
- B22 — 6.2-fold higher, 120 ± 40 nM
- B23 — 1.8-fold higher, 34.1 ± 3.35 nM
- B24 — within error, 23.4 ± 3.5 nM
- B25 — 3.9-fold higher, 74.5 ± 33.5 nM
- B27 — 4.4-fold higher, 85.5 ± 29.5 nM
- B28 — 5.7-fold higher, 110 ± 28 nM
- B29 — 1.7-fold higher, 32 ± 4.5 nM
- B30 — 3.2-fold higher, 61 ± 23 nM
- B31 — 1.9-fold higher, 37.3 ± 5.65 nM
- B32 — 1.7-fold higher, 32.9 ± 4.15 nM

Source: article PMC10786891, “Massively parallel profiling of RNA-targeting CRISPR-Cas13d”
